Experimental data as given in article PMC6744478, “Development of R7BP inhibitors through cross-linking coupled mass spectrometry and integrated modeling” (Communications Biology, 2019).
Blank lines part the entries; values can stand above or below the binder they belong to.

What was measured:
Test in all cases: SPR; OpenSPR (Nicoya), Streptavidin sensor chip; tagged R7BP variant as ligand, purified R7-RGS/Gβ5 duplex as analyte at 3–5 concentrations; PBS pH 7.4, 0.005% Tween20; 25 µL per minute; 1:1-binding model; two independent experiments
Conditions in all cases: both partners purified
[1] = target: T1, RGS7/Gβ5 duplex (human, UniProt P49802 1-495; O14775-2 1-353)
T1 construct: RGS7 (regulator of G protein signaling 7), human; cDNA in pCMV3 vector from Sino Biological; holds the loop RGS7-LP21 at aa230–250; Gβ5 (GNB5), human, short form; also called RGS7 duplex; RGS7/HIS-Gβ5; source: Expi293 HEK cells, transfected, purified; not shown: 6x HIS (named on the purified RGS7/HIS-Gβ5 of the Western blot)
T1 sequence (looked up) 1: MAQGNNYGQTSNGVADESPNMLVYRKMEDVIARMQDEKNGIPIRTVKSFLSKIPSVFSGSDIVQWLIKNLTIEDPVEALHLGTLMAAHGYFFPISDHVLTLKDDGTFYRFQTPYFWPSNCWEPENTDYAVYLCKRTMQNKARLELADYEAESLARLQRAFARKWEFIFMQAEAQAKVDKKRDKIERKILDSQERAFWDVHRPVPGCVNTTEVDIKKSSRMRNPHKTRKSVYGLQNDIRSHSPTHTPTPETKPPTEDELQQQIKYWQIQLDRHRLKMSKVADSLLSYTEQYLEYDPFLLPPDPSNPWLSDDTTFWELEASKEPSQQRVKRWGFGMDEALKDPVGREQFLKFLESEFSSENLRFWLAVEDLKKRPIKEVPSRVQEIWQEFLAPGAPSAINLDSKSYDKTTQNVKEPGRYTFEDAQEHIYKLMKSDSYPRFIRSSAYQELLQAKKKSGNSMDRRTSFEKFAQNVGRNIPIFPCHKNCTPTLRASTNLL
T1 sequence (looked up) 2: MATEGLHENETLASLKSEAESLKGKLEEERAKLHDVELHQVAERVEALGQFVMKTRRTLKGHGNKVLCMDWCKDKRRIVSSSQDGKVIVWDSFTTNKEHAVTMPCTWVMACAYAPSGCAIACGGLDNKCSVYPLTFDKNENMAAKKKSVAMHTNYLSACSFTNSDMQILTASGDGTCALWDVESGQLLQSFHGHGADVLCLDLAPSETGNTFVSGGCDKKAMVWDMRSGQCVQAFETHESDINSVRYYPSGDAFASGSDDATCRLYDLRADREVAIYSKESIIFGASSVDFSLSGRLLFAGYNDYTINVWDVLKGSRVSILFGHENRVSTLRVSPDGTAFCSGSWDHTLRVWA

[2] = target: T2, RGS6/Gβ5 duplex (human, UniProt P49758 1-472; O14775-2 1-353)
T2 construct: RGS6 (regulator of G protein signaling 6), human; Gβ5 (GNB5), human, short form; Only GNB5 constructs with an N-terminal 6x HIS or TS tag are described; also called RGS6 duplex; source: Expi293 HEK cells, transfected, purified
T2 sequence (looked up) 1: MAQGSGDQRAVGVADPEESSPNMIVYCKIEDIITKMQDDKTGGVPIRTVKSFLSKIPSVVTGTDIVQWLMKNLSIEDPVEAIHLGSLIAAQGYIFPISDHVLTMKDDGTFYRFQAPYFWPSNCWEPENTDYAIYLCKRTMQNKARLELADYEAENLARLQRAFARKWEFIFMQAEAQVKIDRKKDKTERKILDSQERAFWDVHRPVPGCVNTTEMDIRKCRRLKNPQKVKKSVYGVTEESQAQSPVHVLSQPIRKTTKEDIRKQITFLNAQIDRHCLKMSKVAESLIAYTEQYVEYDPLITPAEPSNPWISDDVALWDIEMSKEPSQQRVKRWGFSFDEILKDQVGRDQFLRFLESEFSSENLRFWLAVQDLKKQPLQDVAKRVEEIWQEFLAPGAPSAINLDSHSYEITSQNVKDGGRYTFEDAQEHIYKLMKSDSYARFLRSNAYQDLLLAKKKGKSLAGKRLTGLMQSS
T2 sequence (looked up) 2: T1 sequence (looked up) 2

[3] = target: T3, RGS9/Gβ5 duplex (human, UniProt O75916 1-674; O14775-2 1-353)
T3 construct: RGS9-2 (regulator of G protein signaling 9, splice form 2), human; cDNA in pCMV3 vector from Sino Biological; Gβ5 (GNB5), human, short form; also called RGS9 duplex; RGS9-2/Gβ5; source: Expi293 HEK cells, transfected, purified
T3 sequence (looked up) 1: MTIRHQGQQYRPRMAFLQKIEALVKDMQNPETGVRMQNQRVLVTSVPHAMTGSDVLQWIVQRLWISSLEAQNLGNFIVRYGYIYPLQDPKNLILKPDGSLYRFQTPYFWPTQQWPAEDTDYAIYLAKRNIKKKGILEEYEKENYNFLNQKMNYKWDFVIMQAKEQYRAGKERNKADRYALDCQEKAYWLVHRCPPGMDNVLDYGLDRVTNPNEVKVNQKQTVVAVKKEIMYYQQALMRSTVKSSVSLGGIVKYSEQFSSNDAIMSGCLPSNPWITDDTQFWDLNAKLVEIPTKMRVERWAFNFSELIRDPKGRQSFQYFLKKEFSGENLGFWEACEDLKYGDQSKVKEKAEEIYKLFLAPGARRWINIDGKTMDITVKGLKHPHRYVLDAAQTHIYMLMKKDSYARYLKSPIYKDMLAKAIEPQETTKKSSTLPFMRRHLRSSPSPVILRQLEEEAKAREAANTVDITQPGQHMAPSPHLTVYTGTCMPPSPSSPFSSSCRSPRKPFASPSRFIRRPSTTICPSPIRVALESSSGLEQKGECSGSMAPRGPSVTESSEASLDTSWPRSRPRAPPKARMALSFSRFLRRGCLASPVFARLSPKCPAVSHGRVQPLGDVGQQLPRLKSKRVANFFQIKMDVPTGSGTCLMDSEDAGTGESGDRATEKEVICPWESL
T3 sequence (looked up) 2: T1 sequence (looked up) 2

[4] = target: T4, RGS11/Gβ5 duplex (human, UniProt O94810 1-467; O14775-2 1-353)
T4 construct: RGS11 (regulator of G protein signaling 11), human; Gβ5 (GNB5), human, short form; also called RGS11 duplex; source: Expi293 HEK cells, transfected, purified
T4 sequence (O94810 whole entry, one chain of several): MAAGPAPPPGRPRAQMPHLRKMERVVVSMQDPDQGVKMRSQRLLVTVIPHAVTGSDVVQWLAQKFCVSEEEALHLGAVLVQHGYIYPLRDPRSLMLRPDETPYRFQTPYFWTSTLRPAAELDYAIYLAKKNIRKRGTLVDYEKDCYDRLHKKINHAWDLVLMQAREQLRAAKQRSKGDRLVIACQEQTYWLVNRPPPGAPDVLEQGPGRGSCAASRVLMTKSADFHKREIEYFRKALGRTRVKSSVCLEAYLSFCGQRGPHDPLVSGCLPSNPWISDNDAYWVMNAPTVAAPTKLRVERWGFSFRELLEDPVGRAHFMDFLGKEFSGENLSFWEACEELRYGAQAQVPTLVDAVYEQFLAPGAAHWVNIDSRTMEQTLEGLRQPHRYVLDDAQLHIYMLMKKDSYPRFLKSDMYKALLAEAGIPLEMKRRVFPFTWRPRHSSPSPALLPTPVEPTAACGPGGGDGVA

Kd [1]: 9.9 nM
B1: R7BPΔC (domain or fragment, human, UniProt Q6MZT1 1-222, looked up)
chain: MSSAPNGRKKRPSRSTRSSIFQISKPPLQSGDWERRGSGSESAHKTQRALDDCKMLVQEFNTQVALYRELVISIGDVSVSCPSLRAEMHKTRTKGCEMARQAHQKLAAISGPEDGEIHPEICRLYIQLQCCLEMYTTEMLKSICLLGSLQFHRKGKEPGGGTKSLDCKIEESAETPALEDSSSSPVDSQQHSWQVSTDIENTERDMREMKNLLSKLRETMPL
notes: R7BP (RGS7BP), human, C-terminus aa223–257 removed (the mutated cysteines 252 and 253 lie in the removed stretch); Its tag is surmised from its use as SPR ligand; also called R7BP with the C-terminus (aa223–257) removed; source: Expi293 HEK cells, transfected, purified

Kd [2]: 2.3 nM
Kd [1]: 19 nM
Kd [3]: 1.5 nM
Kd [4]: 2.3 nM
B2: R7BP-FL (full-length R7BP; construct R7BP-TEV-TS) (natural protein, human, UniProt Q6MZT1 1-257, looked up)
chain: MSSAPNGRKKRPSRSTRSSIFQISKPPLQSGDWERRGSGSESAHKTQRALDDCKMLVQEFNTQVALYRELVISIGDVSVSCPSLRAEMHKTRTKGCEMARQAHQKLAAISGPEDGEIHPEICRLYIQLQCCLEMYTTEMLKSICLLGSLQFHRKGKEPGGGTKSLDCKIEESAETPALEDSSSSPVDSQQHSWQVSTDIENTERDMREMKNLLSKLRETMPLPLKNQDDSSLLNLTPYPLVRRRKRRFFGLSSLISS
notes: last residue 257 by the printed aa223–257; palmitoylation site removed; also called RGS7BP; source: Expi293 HEK cells, transfected, purified (StrepTrap HP; SEC if needed); not shown: Twin-Strep (after a TEV protease site), C-terminal, kept

Kd [1]: 1.8 nM
B3: R7BPΔN (domain or fragment, human, UniProt Q6MZT1 22-257, looked up)
chain: QISKPPLQSGDWERRGSGSESAHKTQRALDDCKMLVQEFNTQVALYRELVISIGDVSVSCPSLRAEMHKTRTKGCEMARQAHQKLAAISGPEDGEIHPEICRLYIQLQCCLEMYTTEMLKSICLLGSLQFHRKGKEPGGGTKSLDCKIEESAETPALEDSSSSPVDSQQHSWQVSTDIENTERDMREMKNLLSKLRETMPLPLKNQDDSSLLNLTPYPLVRRRKRRFFGLSSLISS
notes: R7BP (RGS7BP), human, lacking the N-terminal 21 amino acids (R7BP-N21); C252S, C253S are stated for all R7BP constructs; Its tag is surmised from its use as SPR ligand; also called truncated R7BP derivative lacking the N-terminal 21 amino acids; source: Expi293 HEK cells, transfected, purified
